In US20250340658A1 (TWIST BIOSCIENCE, published 2025):
Like-named read-outs stand apart in the source and are kept apart here.

How the values were obtained:
[1] = biological target: T1, full length human GLP-1R with N-terminal FLAG tag and C-terminal GFP tag, on CHO cells (human, UniProt P43220 24-463); test: flow cytometry titration, CHO GLP1R cells
T1 construct: whole, on cells; the cell line itself is tied to UniProt P43220; also called FLAG-GLP-1R-GFP; CHO-GLP-1R
Description: (§1) GLP-1R IgG clones were tested in a binding assay coupled to flow cytometry analysis as follows: FLAG-GLP-1R-GFP expressing CHO cells (CHO-GLP-1R) and CHO-parent cells were incubated with 100 nM IgG for 1 h on ice, washed three times and incubated with Alexa 647 conjugated goat-anti-human antibody (1:200) (Jackson ImmunoResearch Laboratories, 109-605-044) for 30 min on ice, followed by three washes, centrifuging to pellet the cells between each washing step. All incubations and washes were in buffer containing PBS+1% BSA. […] Cells were analyzed by flow cytometry and hits (a hit is an IgG that specifically binds to CHO-GLP-1R) were identified by measuring the GFP signal against the Alexa 647 signal. Flow cytometry data of binding assays with 100 nM IgG are presented as dot plots. Analyses of binding assays with IgG titrations are presented as binding curves plotting IgG concentrations against MFI (mean fluorescence intensity).

[2] = biological target: T1, full length human GLP-1R with …; test: flow cytometry, GLP1R-expressing CHO cells
Description: as §1

[3] = biological target: T1, full length human GLP-1R with …; test: flow cytometry, expressing vs parent CHO cells
Description: as §1

[4] = biological target: T1, full length human GLP-1R with …; test: flow cytometry, expressing vs parent CHO cells; remark: listed apart in the source
Description: as §1

[5] = biological target: T1, full length human GLP-1R with …; test: flow cytometry, expressing minus parent CHO cells
Description: as §1

[6] = biological target: T1, full length human GLP-1R with …; test: flow cytometry titration, CHO GLP1R cells; remark: listed apart in the source
Description: as §1

[7] = biological target: T1, full length human GLP-1R with …; test: flow cytometry, GLP1R-expressing CHO cells; remark: listed apart in the source
Description: as §1

[8] = biological target: T1, full length human GLP-1R with …; test: flow cytometry, expressing vs parent CHO cells; remark: listed apart in the source
Description: as §1

[9] = biological target: T1, full length human GLP-1R with …; test: flow cytometry, expressing vs parent CHO cells; remark: listed apart in the source
Description: as §1

[10] = biological target: T1, full length human GLP-1R with …; test: flow cytometry, expressing minus parent CHO cells; remark: listed apart in the source
Description: as §1

Bmax [1] | Median RL1-H of Expressing Singlets [2] | MFI Ratio [3] | MFI Ratio [4] | Subtraction [5] | EC50 [1] | Bmax [6] | EC50 [6] | Median RL1-H of Expressing Singlets [7] | MFI Ratio [8] | MFI Ratio [9] | Subtraction [10] | Binder
798000 | 273000 | 915 | 914 | 272000 |  |  |  |  |  |  |  | GLP1R-221-065 (antibody, V domains shown, IgG) VH: QVQLVESGGGVVQPGRSLRLSCAASGFTFNNYAMHWVRQAPGKGLEWVAVISYDRSNEYYADSVKGRFTISRDNSKNTLYLQMNSLRAEDTAVYYCAKHMSMQEGAVTGDGQAAKEFIAWLVKGRVRADLVGDAFDVWGQGTLVTVSS VL: QSVLTQPPSVSAAPGQKVTISCSGTTSNIANNFVSWYQQLPGTAPKLLIYDHNKRPSGIPDRFSGSKSGTSATLGITGLQTGDEADYYCGTWDTSLSAGAFGGGTKLTVL
213000 | 242000 | 1170 | 1170 | 242000 |  |  |  |  |  |  |  | GLP1R-221-075 (antibody, V domains shown, IgG) VH: QVQLVESGGGVVQPGRSLRLSCAASGFTFSNYPMHWVRQAPGKGLEWVAVISYDETNKYYADSVKGRFTISRDNSKNTLYLQMNSLRAEDTAVYYCAKHMSMQEGAVTGEGQAAKEFIAWLVKGIVRADLVGDAFDVWGQGTLVTVSS VL: QSVLTQPPSVSAAPGQKVTISCSGSGSNIGNNDVSWYQQLPGTAPKLLIYDNDKRPAGIPDRFSGSKSGTSATLGITGLQTGDEADYYCGTWDTSLSNYVFGGGTKLTVL
287000 | 221000 | 1070 | 1070 | 221000 | 4.09 nM |  |  |  |  |  |  | GLP1R-221-084 (antibody, V domains shown, IgG) VH: QVQLVESGGGVVQPGRSLRLSCAASGFAFSNYGMHWVRQAPGKGLEWVAVISSDENNKYYADSVKGRFTISRDNSKNTLYLQMNSLRAEDTAVYYCAKHMSMQEGAVTGEMQAAKEFIAWLVKGRVRADLVGDAFDVWGQGTLVTVSS VL: QSVLTQPPSVSAAPGQKVTISCSGSSSNIADNYVSWYQQLPGTAPKLLIYENNRRPSGIPDRFSGSKSGTSATLGITGLQTGDEADYYCGTWDVSLSVGMFGGGTKLTVL
215000 | 221000 | 1120 | 1120 | 220000 | 12.5 nM |  |  |  |  |  |  | GLP1R-221-009 (antibody, V domains shown, IgG) VH: QVQLVESGGGVVQPGRSLRLSCAASGFIFSNYGMHWVRQAPGKGLEWVAVISDEGSNKYYADSVKGRFTISRDNSKNTLYLQMNSLRAEDTAVYYCAKHMSMQEGAVTGAGQAAKEFIAWLVKGRVRADLVGDAFDVWGQGTLVTVSS VL: QSVLTQPPSVSAAPGQKVTISCSGSSSNIGNQYVSWYQQLPGTAPKLLIYDDHKRPSGIPDRFSGSKSGTSATLGITGLQTGDEADYYCGTWDTSLSVGEFGGGTKLTVL
250000 | 241000 | 1480 | 1480 | 240000 | 27.6 nM |  |  |  |  |  |  | GLP1R-221-017 (antibody, V domains shown, IgG) VH: QVQLVESGGGVVQPGRSLRLSCAASGFTFSDYGVHWVRQAPGKGLEWVAFISYDESNKYYADSVKGRFTISRDNSKNTLYLQMNSLRAEDTAVYYCAKHMSMQEGAVTGEYQAAKEFIAWLVKGRVRADLVGDAFDVWGQGTLVTVSS VL: QSVLTQPPSVSAAPGQKVTISCSGSSSNIGNTYVSWYQQLPGTAPKLLIYDDYKRPSGIPDRFSGSKSGTSATLGITGLQTGDEADYYCATWDATLNTGVFGGGTKLTVL
172000 | 223000 | 928 | 928 | 222000 | 57.4 nM |  |  |  |  |  |  | GLP1R-221-066 (antibody, V domains shown, IgG) VH: QVQLVESGGGVVQPGRSLRLSCAASGFTFNNYAMHWVRQAPGKGLEWVAVISYDRSNEYYADSVKGRFTISRDNSKNTLYLQMNSLRAEDTAVYYCAKHMSMQEGAVTGEGQAIKEFIAWLVKGRVRADLVGDAFDVWGQGTLVTVSS VL: QSVLTQPPSVSAAPGQKVTISCSGSSSNIGNNYLSWYQQLPGTAPKLLIYENNKRPSGIPDRFSGSKSGTSATLGITGLQTGDEADYYCGIWDRSLSAWVFGGGTKLTVL
 |  |  |  |  |  | 151000 | 13.1 nM | 225000 | 984 | 984 | 225000 | GLP1R-222-073 (antibody, V domains shown, IgG) VH: QVQLVESGGGVVQPGRSLRLSCAASGFTFRDYGMHWVRQAPGKGLEWVAFIRYDEINKYYADSVKGRFTISRDNSKNTLYLQMNSLRAEDTAVYYCAKHMSMQEGAVTGEGQAAKEFIAWLVGGRVRADLVGDAFDVWGQGTLVTVSS VL: QSVLTQPPSVSAAPGQKVTISCSGSGSNIGNNDVSWYQQLPGTAPKLLIYDNNKRASGIPDRFSGSKSGTSATLGITGLQTGDEADYYCGTWDRGPNTGVFGGGTKLTVL
167000 | 240000 | 1020 | 1020 | 240000 | 9.04 nM |  |  |  |  |  |  | GLP1R-221-033 (antibody, V domains shown, IgG) VH: QVQLVESGGGVVQPGRSLRLSCAASGFSFSNYAMHWVRQAPGKGLEWVAVISHDRSNKYYADSVKGRFTISRDNSKNTLYLQMNSLRAEDTAVYYCAKHMSMQEGAVTGEGQAAKDFIAWLVKGRVRADLVGDAFDVWGQGTLVTVSS VL: QSVLTQPPSVSAAPGQKVTISCSGSSSNIGNEYVSWYQQLPGTAPKLLIYDNNKRVSGIPDRFSGSKSGTSATLGITGLQTGDEADYYCATWDTSLNVGVFGGGTKLTVL
933000 | 223000 | 711 | 711 | 223000 |  |  |  |  |  |  |  | GLP1R-221-034 (antibody, V domains shown, IgG) VH: QVQLVESGGGVVQPGRSLRLSCAASGFPFSNYGMHWVRQAPGKGLEWVAVISHDRSNKYYADSVKGRFTISRDNSKNTLYLQMNSLRAEDTAVYYCAKHMSMQEGAVTGEGQAVKEFIAWLVKGRVRADLVGDAFDVWGQGTLVTVSS VL: QSVLTQPPSVSAAPGQKVTISCSGSSSNIGNNPVSWYQQLPGTAPKLLIYENDNRPSGIPDRFSGSKSGTSATLGITGLQTGDEADYYCATWDRGLSTGVFGGGTKLTVL
145000 | 232000 | 712 | 712 | 232000 | 13.3 nM |  |  |  |  |  |  | GLP1R-221-092 (antibody, V domains shown, IgG) VH: QVQLVESGGGVVQPGRSLRLSCAASGFIFNNYGMHWVRQAPGKGLEWVAFISYGGSNKYYADSVKGRFTISRDNSKNTLYLQMNSLRAEDTAVYYCAKHMSMQEGAVTGEGQAVKEFIAWLVKGRVRADLVGDAFDVWGQGTLVTVSS VL: QSVLTQPPSVSAAPGQKVTISCSGTTSNIANNFVSWYQQLPGTAPKLLIYDNNKRPPGIPDRFSGSKSGTSATLGITGLQTGDEADYYCGTWDTSLSVGMFGGGTKLTVL
799000 | 236000 | 747 | 747 | 236000 |  |  |  |  |  |  |  | GLP1R-221-076 (antibody, V domains shown, IgG) VH: QVQLVESGGGVVQPGRSLRLSCAASGFTFNNYPMHWVRQAPGKGLEWVAVISYDETNKYYADSVKGRFTISRDNSKNTLYLQMNSLRAEDTAVYYCAKHMSMQEGAVTGEGQAAKEFIAWLVKGIVRADLVGDAFDVWGQGTLVTVSS VL: QSVLTQPPSVSAAPGQKVTISCSGTSSNIGNNDVSWYQQLPGTAPKLLIYENNKRHSGIPDRFSGSKSGTSATLGITGLQTGDEADYYCLTWDHSLTAYVFGGGTKLTVL
